The target of series [1] is OsSWEET2b, crystallisation construct (C-terminal 15 residues removed, reductively methylated) (Oryza sativa). In words: crystal structure.
Series [2] deals with the molecule itself. In words: cross-linking.

“OsSWEET2b, crystallisation construct (C-terminal 15 residues removed, reductively methylated) (natural protein)” had a stoichiometry N in series [1] of 3.

B1: OsSWEET2b, purified in DDM for glutaraldehyde cross-linking (natural protein)
chain: MDSLYDISCFAAGLAGNIFALALFLSPVTTFKRILKAKSTERFDGLPYLFSLLNCLICLWYGLPWVADGRLLVATVNGIGAVFQLAYICLFIFYADSRKTRMKIIGLLVLVVCGFALVSHASVFFFDQPLRQQFVGAVSMASLISMFASPLAVMGVVIRSESVEFMPFYLSLSTFLMSASFALYGLLLRDFFIYFPNGLGLILGAMQLALYAYYSSNSLEVLFQ
In the case of B1, the “stoichiometry N” value in series [2] came out at 3.

Usually stoichiometry N stands for the number of molecules, sites or subunits per partner or assembly.

(Values after article PMC4734654 (Nature, 2015).)
